Data on 1 substance can be found in article PMC6351033.

The assay has as its target CXCR3 chemotactic receptor (human (endogenous in PBMC)) (UniProt P49682).
Chain of UniProt P49682 (P49682 whole entry): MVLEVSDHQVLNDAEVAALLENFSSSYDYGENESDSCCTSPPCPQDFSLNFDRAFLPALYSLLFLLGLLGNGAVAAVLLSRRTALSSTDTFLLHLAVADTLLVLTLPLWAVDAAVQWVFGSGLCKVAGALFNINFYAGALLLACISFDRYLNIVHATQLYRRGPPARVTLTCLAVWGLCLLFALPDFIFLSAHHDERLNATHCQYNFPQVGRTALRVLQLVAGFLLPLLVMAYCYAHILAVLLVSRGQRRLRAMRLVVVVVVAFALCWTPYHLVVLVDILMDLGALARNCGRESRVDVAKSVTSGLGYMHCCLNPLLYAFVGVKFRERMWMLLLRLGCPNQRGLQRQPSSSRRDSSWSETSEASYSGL

Take “Tag7-Mts1 complex (from UniProt O75594 22-196; P26447 1-101)”: the chemotaxis of PBMC (Boyden chamber, Tag7-Mts1 at 10^-9 M) after preincubation of the cells with antibodies to CXCR3; reduction of migration was below 20%.
